T1: APBA1_2, Q02410
T1 sequence (Q02410 742-832, limits assumed, looked up): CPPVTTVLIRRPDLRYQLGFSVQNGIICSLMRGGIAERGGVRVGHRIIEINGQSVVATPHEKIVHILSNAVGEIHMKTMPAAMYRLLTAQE

T2: APBA2_2, Q99767
T2 sequence (Q99767 654-744, limits assumed, looked up): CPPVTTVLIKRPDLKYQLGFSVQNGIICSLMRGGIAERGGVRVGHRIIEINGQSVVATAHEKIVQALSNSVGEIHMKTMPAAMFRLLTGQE

T3: APBA3_1, O96018
T3 sequence (O96018 389-490, limits assumed, looked up): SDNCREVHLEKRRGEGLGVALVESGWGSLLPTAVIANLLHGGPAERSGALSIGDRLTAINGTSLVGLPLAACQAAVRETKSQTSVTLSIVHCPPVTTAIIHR

T4: ARHGAP21, Q5T5U3
T4 sequence (Q5T5U3 45-169, limits assumed, looked up): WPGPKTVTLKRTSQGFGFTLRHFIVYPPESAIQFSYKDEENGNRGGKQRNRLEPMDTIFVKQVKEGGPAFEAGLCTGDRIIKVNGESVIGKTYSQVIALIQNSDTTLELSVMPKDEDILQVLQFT

T5: FRMPD1, Q5SYB0
T5 sequence (Q5SYB0 52-145, limits assumed, looked up): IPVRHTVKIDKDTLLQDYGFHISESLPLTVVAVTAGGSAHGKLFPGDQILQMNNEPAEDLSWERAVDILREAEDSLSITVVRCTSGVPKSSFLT

T6: HTRA4, P83105
T6 sequence (P83105 378-476, limits assumed, looked up): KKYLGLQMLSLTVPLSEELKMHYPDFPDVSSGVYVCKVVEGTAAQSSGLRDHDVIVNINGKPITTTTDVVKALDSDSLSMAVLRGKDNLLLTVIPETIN

T7: LIN7B, Q9HAP6
T7 sequence (Q9HAP6 88-185, limits assumed, looked up): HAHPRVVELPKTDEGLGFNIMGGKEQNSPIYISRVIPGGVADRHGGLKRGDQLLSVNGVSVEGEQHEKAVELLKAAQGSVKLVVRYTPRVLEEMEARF

T8: MPDZ_10, O75970
T8 sequence (O75970 1624-1722, limits assumed, looked up): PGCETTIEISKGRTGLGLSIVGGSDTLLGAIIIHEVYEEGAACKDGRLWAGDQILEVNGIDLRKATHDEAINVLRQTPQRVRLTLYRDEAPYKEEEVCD

T9: NHERF3_4, Q5T2W1
T9 sequence (Q5T2W1 373-468, limits assumed, looked up): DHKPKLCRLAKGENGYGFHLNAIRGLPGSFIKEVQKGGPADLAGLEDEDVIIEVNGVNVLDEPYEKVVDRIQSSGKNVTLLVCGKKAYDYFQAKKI

T10: PDZD7_3, Q9H5P4
T10 sequence (Q9H5P4 857-944, limits assumed, looked up): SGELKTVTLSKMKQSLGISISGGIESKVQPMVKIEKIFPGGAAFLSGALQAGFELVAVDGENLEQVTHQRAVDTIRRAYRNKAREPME

T11: PTPN13_1, Q12923
T11 sequence (Q12923 1088-1188, limits assumed, looked up): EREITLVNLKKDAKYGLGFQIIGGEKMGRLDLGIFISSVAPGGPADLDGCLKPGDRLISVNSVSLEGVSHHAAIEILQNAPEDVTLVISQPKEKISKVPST

T12: SIPA1L2, Q9P2F8
T12 sequence (Q9P2F8 945-1036, limits assumed, looked up): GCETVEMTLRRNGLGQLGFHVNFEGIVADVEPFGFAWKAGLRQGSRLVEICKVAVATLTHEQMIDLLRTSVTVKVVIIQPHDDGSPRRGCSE

T13: SYNJ2BP, P57105
T13 sequence (P57105 8-110, limits assumed, looked up): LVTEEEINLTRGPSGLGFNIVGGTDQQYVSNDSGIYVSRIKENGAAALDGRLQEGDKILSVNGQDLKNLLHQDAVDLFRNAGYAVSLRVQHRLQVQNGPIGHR


What was measured:
Assay in all cases: holdup assay
Set-up in all cases: key: below the threshold = too weak to quantify, mostly under pKd 3.1 to 4
Conditions in all cases: plain residues with an end cap or a label only (N-terminal biotin on a linker: ado-ado)
APBA1_2, Q02410 = target: T1, APBA1_2, Q02410
APBA2_2, Q99767 = target: T2, APBA2_2, Q99767
APBA3_1, O96018 = target: T3, APBA3_1, O96018
ARHGAP21, Q5T5U3 = target: T4, ARHGAP21, Q5T5U3
DLG1_1, Q12959 = target: DLG1_1, Q12959
FRMPD1, Q5SYB0 = target: T5, FRMPD1, Q5SYB0
GIPC2, Q8TF65 = target: GIPC2, Q8TF65
GIPC2, Q8TF65, sequence (Q8TF65 112-203): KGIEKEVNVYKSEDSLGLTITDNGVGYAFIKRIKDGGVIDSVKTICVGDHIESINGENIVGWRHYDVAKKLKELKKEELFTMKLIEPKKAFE

GRASP, Q7Z6J2 = target: GRASP, Q7Z6J2
GRASP, Q7Z6J2, sequence (Q7Z6J2 96-193): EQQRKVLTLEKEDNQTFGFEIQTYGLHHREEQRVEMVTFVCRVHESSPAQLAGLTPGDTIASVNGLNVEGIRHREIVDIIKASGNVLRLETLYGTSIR

GRIP2_3, Q9C0E4 = target: GRIP2_3, Q9C0E4
GRIP2_3, Q9C0E4, sequence (Q9C0E4 238-339): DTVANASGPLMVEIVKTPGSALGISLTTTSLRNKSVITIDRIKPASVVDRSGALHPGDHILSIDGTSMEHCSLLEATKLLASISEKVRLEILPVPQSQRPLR

GRIP2_7, Q9C0E4 = target: GRIP2_7, Q9C0E4
GRIP2_7, Q9C0E4, sequence (Q9C0E4 934-1023): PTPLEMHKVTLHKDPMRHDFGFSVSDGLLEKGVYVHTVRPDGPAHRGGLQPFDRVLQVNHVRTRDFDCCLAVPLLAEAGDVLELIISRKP

HTRA4, P83105 = target: T6, HTRA4, P83105
Inadl_2, Q8NI35 = target: Inadl_2, Q8NI35
Inadl_2, Q8NI35, sequence (Q8NI35 238-335): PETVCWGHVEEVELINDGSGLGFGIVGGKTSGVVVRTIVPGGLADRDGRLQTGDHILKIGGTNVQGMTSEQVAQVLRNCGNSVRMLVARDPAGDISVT

LIN7B, Q9HAP6 = target: T7, LIN7B, Q9HAP6
MAGI2_4, Q86UL8 = target: MAGI2_4, Q86UL8
MAGI2_4, Q86UL8, sequence (Q86UL8 772-865): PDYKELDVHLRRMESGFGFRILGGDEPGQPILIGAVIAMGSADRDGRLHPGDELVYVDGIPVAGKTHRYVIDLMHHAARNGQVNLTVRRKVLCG

MAGI3_2, Q5TCQ9 = target: MAGI3_2, Q5TCQ9
MAGI3_2, Q5TCQ9, sequence (Q5TCQ9 398-503): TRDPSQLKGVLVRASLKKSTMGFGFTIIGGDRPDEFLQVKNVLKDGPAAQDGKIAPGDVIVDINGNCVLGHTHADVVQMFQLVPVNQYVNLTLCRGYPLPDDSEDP

MAST2, Q6P0Q8 = target: MAST2, Q6P0Q8
MAST2, Q6P0Q8, sequence (Q6P0Q8 1099-1202): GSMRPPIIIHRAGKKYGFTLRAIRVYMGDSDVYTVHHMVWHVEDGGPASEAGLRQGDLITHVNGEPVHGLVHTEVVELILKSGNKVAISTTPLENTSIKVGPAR

MPDZ_10, O75970 = target: T8, MPDZ_10, O75970
NHERF3_4, Q5T2W1 = target: T9, NHERF3_4, Q5T2W1
PDLIM1, O00151 = target: PDLIM1, O00151
PDLIM1, O00151, sequence (O00151 1-87): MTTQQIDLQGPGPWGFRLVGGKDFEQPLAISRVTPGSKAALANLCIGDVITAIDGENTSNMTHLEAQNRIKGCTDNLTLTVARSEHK

PDZD7_3, Q9H5P4 = target: T10, PDZD7_3, Q9H5P4
PTPN13_1, Q12923 = target: T11, PTPN13_1, Q12923
SIPA1L2, Q9P2F8 = target: T12, SIPA1L2, Q9P2F8
SNX27, Q96L92 = target: SNX27, Q96L92
SYNJ2BP, P57105 = target: T13, SYNJ2BP, P57105
TJP2_1, Q9UDY2 = target: TJP2_1, Q9UDY2
TJP2_1, Q9UDY2, sequence (Q9UDY2 24-128): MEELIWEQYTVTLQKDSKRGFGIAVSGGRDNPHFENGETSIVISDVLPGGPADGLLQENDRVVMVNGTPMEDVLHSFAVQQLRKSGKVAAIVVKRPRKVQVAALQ

| pKd (APBA1_2, Q02410) | pKd (APBA2_2, Q99767) | pKd (APBA3_1, O96018) | pKd (ARHGAP21, Q5T5U3) | pKd (DLG1_1, Q12959) | pKd (FRMPD1, Q5SYB0) | pKd (GIPC2, Q8TF65) | pKd (GRASP, Q7Z6J2) | pKd (GRIP2_3, Q9C0E4) | pKd (GRIP2_7, Q9C0E4) | pKd (HTRA4, P83105) | pKd (Inadl_2, Q8NI35) | pKd (LIN7B, Q9HAP6) | pKd (MAGI2_4, Q86UL8) | pKd (MAGI3_2, Q5TCQ9) | pKd (MAST2, Q6P0Q8) | pKd (MPDZ_10, O75970) | pKd (NHERF3_4, Q5T2W1) | pKd (PDLIM1, O00151) | pKd (PDZD7_3, Q9H5P4) | Binder | other results |
| --- | --- | --- | --- | --- | --- | --- | --- | --- | --- | --- | --- | --- | --- | --- | --- | --- | --- | --- | --- | --- | --- |
| below the threshold | below the threshold | below the threshold | below the threshold | below the threshold | below the threshold | below the threshold | below the threshold | below the threshold | below the threshold | below the threshold | below the threshold | 3.68 | 3.9 | below the threshold | below the threshold | below the threshold | below the threshold | below the threshold | 3.67 | AHGSTRDQSI [KCNB1, Q14721] | pKd (PTPN13_1, Q12923): below the threshold; pKd (SIPA1L2, Q9P2F8): 3.58; pKd (SNX27, Q96L92): below the threshold; pKd (SYNJ2BP, P57105): below the threshold; pKd (TJP2_1, Q9UDY2): below the threshold |
| 3.84 | below the threshold | below the threshold | 4.61 | below the threshold | below the threshold | below the threshold | 3.72 | below the threshold | below the threshold | below the threshold | below the threshold | below the threshold | below the threshold | 3.66 | 5.15 | below the threshold | 4.55 | 3.75 | 4.47 | FLVTEFNVML [DFNB31, Q9P202] | pKd (PTPN13_1, Q12923): below the threshold; pKd (SIPA1L2, Q9P2F8): below the threshold; pKd (SNX27, Q96L92): 4.4; pKd (SYNJ2BP, P57105): below the threshold; pKd (TJP2_1, Q9UDY2): below the threshold |
| 4.67 | below the threshold | below the threshold | below the threshold | below the threshold | below the threshold | below the threshold | below the threshold | below the threshold | 5.83 | 4.14 | 4.38 | below the threshold | 3.82 | 4.03 | 4.07 | below the threshold | below the threshold | below the threshold | below the threshold | PALKNGQYWV [CSPG4, Q6UVK1] | pKd (PTPN13_1, Q12923): below the threshold; pKd (SIPA1L2, Q9P2F8): below the threshold; pKd (SNX27, Q96L92): 3.77; pKd (SYNJ2BP, P57105): below the threshold; pKd (TJP2_1, Q9UDY2): 4.6 |
| below the threshold | below the threshold | below the threshold | 3.81 | 3.64 | below the threshold | below the threshold | 4.71 | below the threshold | below the threshold | below the threshold | below the threshold | below the threshold | below the threshold | 4.47 | 5.45 | below the threshold | 4.11 | below the threshold | 4.87 | WAKEKQHTRL [SLC17A1, Q14916] | pKd (PTPN13_1, Q12923): below the threshold; pKd (SIPA1L2, Q9P2F8): below the threshold; pKd (SNX27, Q96L92): 4.28; pKd (SYNJ2BP, P57105): below the threshold; pKd (TJP2_1, Q9UDY2): 3.82 |
| 3.72 | below the threshold | below the threshold | below the threshold | 3.91 | below the threshold | below the threshold | 4.32 | below the threshold | below the threshold | 4.38 | below the threshold | 3.65 | 4.34 | 4.62 | 5.6 | below the threshold | below the threshold | below the threshold | 4.95 | YAEKRMLTEV [KCNA6, P17658] | pKd (PTPN13_1, Q12923): below the threshold; pKd (SIPA1L2, Q9P2F8): below the threshold; pKd (SNX27, Q96L92): below the threshold; pKd (SYNJ2BP, P57105): 4.05; pKd (TJP2_1, Q9UDY2): below the threshold |
| 3.63 | below the threshold | below the threshold | below the threshold | 3.74 | below the threshold | below the threshold | 4.47 | below the threshold | below the threshold | below the threshold | below the threshold | 3.64 | below the threshold | below the threshold | 4.12 | below the threshold | below the threshold | below the threshold | 3.68 | GVHSNDHSVV [LPAR1, Q92633] | pKd (PTPN13_1, Q12923): below the threshold; pKd (SIPA1L2, Q9P2F8): below the threshold; pKd (SNX27, Q96L92): below the threshold; pKd (SYNJ2BP, P57105): 3.7; pKd (TJP2_1, Q9UDY2): below the threshold |

Source: paper PMC9482650, “Quantitative fragmentomics allow affinity mapping of interactomes” (Nature Communications, 2022)
